Reference: publication PMC3390401, “Phosphorylation-Dependent Interactions between Crb2 and Chk1 Are Essential for DNA Damage Checkpoint” (PLoS Genetics, 2012)
Non-standard residues stand in square brackets, D forms with d. No end group written: not given here. pS = N[C@@H](COP(=O)(O)O)C(=O)O

Legend:
Chk1 = Chk1 (UniProt P34208); experiment: biotin-peptide streptavidin pull-down, Coomassie or immunoblot
[1] = target: Crb2(67–85)pT73pS80 peptide (S. pombe) (UniProt P87074); experiment: pull-down; Eluted Chk1-YFH incubated with 2 µg biotin-labeled peptide at 4°C for 2 h, peptides captured on streptavidin Dynabeads M-280, washed with lysis buffer (50 mM Hepes pH 7.5, 100 mM NaCl, 1 mM EDTA, 10% glycerol, 0.05% NP-40); eluates and input on 4%–20% SDS-PAGE, Coomassie staining
[2] = target: Crb2(67–85)pT73pS80 peptide (S. pombe) (UniProt P87074); experiment: pull-down; Same peptide pull-down repeated; eluates and serial dilutions of Chk1-YFH input examined by immunoblotting with an anti-GFP antibody
[3] = target: Crb2(67–85)pS80 peptide (S. pombe) (UniProt P87074); experiment: as above
[4] = target: Crb2(67–85) peptide, unphosphorylated (S. pombe) (UniProt P87074); experiment: as above
[5] = target: Crb2(67–85)pT73 peptide (S. pombe) (UniProt P87074); experiment: as above
His-GST-Crb2(521–778) = target: T1, His-GST-Crb2(521–778) (S. pombe, UniProt P87074 521-778); experiment: pull-down; His-GST-Crb2(521–778) incubated with H2A peptides, peptides pulled down by streptavidin Dynabeads, eluted by boiling in SDS loading buffer; 4%–20% SDS-PAGE, Coomassie staining; conditions: both partners purified
T1 construct: Crb2, S. pombe, residues 521-778 (the BRCT domains); also called BRCTs in Crb2; source: E. coli, purified with Ni-NTA beads; not shown: His, N-terminal, kept; GST, N-terminal, kept
T1 sequence (looked up): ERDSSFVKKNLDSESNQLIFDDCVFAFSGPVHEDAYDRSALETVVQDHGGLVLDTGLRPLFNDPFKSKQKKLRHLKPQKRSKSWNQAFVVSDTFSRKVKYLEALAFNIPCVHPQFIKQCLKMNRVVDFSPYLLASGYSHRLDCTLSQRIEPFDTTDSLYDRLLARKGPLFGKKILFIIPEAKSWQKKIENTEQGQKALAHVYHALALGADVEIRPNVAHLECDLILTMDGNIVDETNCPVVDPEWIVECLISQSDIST

## Crb2 67-85 (from UniProt P87074) pS80 peptide
Chk1; reference: unphosphorylated peptide, sites S80
  other: share of Chk1 input pulled down: gained; reference lower than 0.08%

## Crb2 67-85 (from UniProt P87074) pT73 peptide
Chk1; reference: unphosphorylated peptide, sites T73
  other: share of Chk1 input pulled down: gained; reference lower than 0.08%

## Crb2 67-85 (from UniProt P87074) pT73pS80 peptide
Chk1; reference: pS80 peptide, sites T73
  other: share of Chk1 input pulled down: stronger; reference about 1%
Chk1; reference: pT73 peptide, sites S80
  other: share of Chk1 input pulled down: same; reference about 7%

## YFP-Flag-His6 (YFH)-tagged Chk1 (from UniProt P34208 1-496) (enzyme)
[1]
  percent of input pulled down (% of the input): > 5
[2]
  percent of input pulled down (% of the input): 7
[3]
  percent of input pulled down (% of the input): 1
[4]
  percent of input pulled down (% of the input): < 0.08
[5]
  percent of input pulled down (% of the input): 7

B1: Hta1(120–132-pS129) peptide (peptide, UniProt P04909 120-132, looked up)
peptide: KTSGRTGKP[pS]QEL
notes: Histone H2A Hta1, S. pombe, residues 120-132; also called γH2A peptide; phosphorylated histone H2A peptide
His-GST-Crb2(521–778)
  binding result: binds
